*1 amine or outer side, *2 acyl side, *3 side chain or, on linkers, in order; H or OH if unused. Bridges are numbered along the chain shown (N, C = ends). Where no end group is shown, it is not given here. [ ]: non-standard residue; d: D form. Phe(4-OMe) = 4-methoxy-phenylalanine (4-MeOPhe) = O-methyl-tyrosine, COc1ccc(C[C@H](N[*:1])C(=O)[*:2])cc1; TATA = O=C(CC[*:1])N1CN(C(=O)CC[*:2])CN(C(=O)CC[*:3])C1; Abu(4,4,4-F3) = N[C@@H](CC(F)(F)F)C(=O)O; Orn = NCCC[C@H](N)C(=O)O
B1: Example 23 (peptide)
peptide: CQWLENCWRGXC
modifications: not fully specified; N-term acetyl; CQWLENCWRG[4-FPhe]C as printed; 3 Cys on TATA
B2: Example 126 (peptide)
peptide: CAWLEDCWRGXC
modifications: not fully specified; N-term acetyl; C[dA]WLEDCWRG[4-FPhe]C as printed; 3 Cys on TATA
B3: Example 43 (peptide)
peptide: CQWLFDCWRGXC
modifications: not fully specified; N-term acetyl; CQWLFDCWRG[4-FPhe]C as printed; 3 Cys on TATA
B4: Example 105 (peptide)
peptide: CQWLXDCWRGXC
modifications: not fully specified; N-term acetyl; CQWL[3-ClPhe]DCWRG[4-FPhe]C as printed; 3 Cys on TATA
B5: Example 21 (peptide)
peptide: CQXLEDCXRGXC
modifications: not fully specified; N-term acetyl; CQ[5FTrp]LEDC[5FTrp]RG[4-FPhe]C as printed; 3 Cys on TATA
B6: Example 28 (peptide)
peptide: CWWLQDCWXGXC
modifications: not fully specified; N-term acetyl; CWWLQDCW[ADMA]G[4-FPhe]C as printed; 3 Cys on TATA

Target: T1, Biotinylated human TSLP (human, biotinylated)
T1 construct: also called hTSLP; thymic stromal lymphopoietin
T1 sequence (chain, as listed by the source limits assumed): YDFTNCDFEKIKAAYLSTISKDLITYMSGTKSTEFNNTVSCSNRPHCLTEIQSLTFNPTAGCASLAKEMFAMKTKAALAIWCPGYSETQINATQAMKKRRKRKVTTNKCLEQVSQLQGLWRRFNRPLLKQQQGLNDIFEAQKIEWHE
Experiment: SPR, biotinylated hTSLP on streptavidin chip

Binder	Kd
CHWLEDCWRGXC (N-term acetyl; CHWLEDCWRG[4-FPhe]C as printed; 3 Cys on TATA) [Example 19]	6.7 nM
CQWIEDCWRGXC (N-term acetyl; CQWIEDCWRG[4-FPhe]C as printed; 3 Cys on TATA) [Example 57]	51 nM
B1	9.9 nM
CQWLFDCWRGXC (N-term acetyl; CQWLFDCWRG[4-FPhe]C as printed; C-terminal -COOH; 3 Cys on TATA) [Example 39]	21 nM
B2	310 nM
B3	30 nM
CHWLENCWXGFC (not fully specified; N-term acetyl; CHWLENCW[Dap]GFC as printed; 3 Cys on TATA) [Example 159]	5600 nM
ACTDLDPWTCNSWWLCAGD (linker 2-10-16 via TATA; not fully specified (C-terminus)) [Example 169]	290 nM
CQXLEDCWXGXC (N-term acetyl; CQ[ButG]LEDCW[ButG]G[4-FPhe]C as printed; 3 Cys on TATA) [Example 145]	900 nM
CQWLEDCWRGXC (N-term acetyl; CQWLEDCWRG[3-BrPhe]C as printed; 3 Cys on TATA) [Example 143]	750 nM
ACRDLDPWTCSSWWLCSSDTTDA (linker 2-10-16 via TATA) [Example 176]	300 nM
AHPCADLDPWTCPNWWLCA (linker 4-12-18 via TATA; not fully specified (C-terminus)) [Example 165]	30 nM
CQWLEDCWRGFCDTSTHS (linker 1-7-12 via TATA; not fully specified (C-terminus)) [Example 128]	380 nM
CQWLEDCWRGXC (N-term acetyl; CQWLEDCWRG[3-CNPhe]C as printed; 3 Cys on TATA) [Example 130]	400 nM
DHDCTWNWEYDCWLDCA (linker 4-12-16 via TATA) [Example 200]	68 nM
ACDWVWEYDCWLPCA (linker 2-10-14 via TATA) [Example 197]	460 nM
ACRDLDPWTCPTWWTCYDE (linker 2-10-16 via TATA; not fully specified (C-terminus)) [Example 168]	290 nM
Ac-CQWLEDCWRG[Phe(4-OMe)]C (linker 1-7-12 via TATA) [Example 142]	710 nM
CTELDXWTCETWWLC (CTELD[5-Ph-P]WTCETWWLC as printed; 3 Cys on TATA) [Example 194]	290 nM
B4	180 nM
CWWLXDCWRGXC (N-term acetyl; CWWL[3-ClPhe]DCWRG[4-FPhe]C as printed; 3 Cys on TATA) [Example 144]	860 nM

Binder	Kd
ACEWLEDCWKGFCHSE (linker 2-8-13 via TATA) [Example 136]	520 nM
ACDWLDDCWKGFCA (linker 2-8-13 via TATA) [Example 141]	600 nM
SHVCRDLDPWTCDSWWLCA (linker 4-12-18 via TATA) [Example 188]	72 nM
CKELDPWTCETWWLC (linker 1-9-15 via TATA) [Example 179]	360 nM
CQELDPWTCETWWLC (linker 1-9-15 via TATA) [Example 181]	310 nM
RENCRWLDDCWQGFCA (linker 4-10-15 via TATA) [Example 117]	250 nM
ACESLDPWSCPVWWRCA (linker 2-10-16 via TATA; not fully specified (C-terminus)) [Example 161]	890 nM
Ac-CDWLEDCWRGFCTTS (linker 1-7-12 via TATA; not fully specified (C-terminus)) [Example 100]	160 nM
CQWLEDCWXGFC (not fully specified; CQWLEDCW[Cit]GFC as printed; 3 Cys on TATA) [Example 102]	170 nM
ACDWHWEYDCWLSCA (linker 2-10-14 via TATA) [Example 199]	81 nM
CTELDXWTCETWWLC (CTELD[Chx-P]WTCETWWLC as printed; 3 Cys on TATA) [Example 195]	15000 nM
CQWLEDCWXGFC (not fully specified; N-term acetyl; CQWLEDCW[Dap]GFC as printed; 3 Cys on TATA) [Example 155]	3200 nM
ACRDLDPWTCSSWWLCADGLYDA (linker 2-10-16 via TATA) [Example 193]	50 nM
Ac-CQW[Abu(4,4,4-F3)]EDCWRGFC (linker 1-7-12 via TATA; not fully specified (C-terminus)) [Example 111]	200 nM
CQWLQDCFRGXC (N-term acetyl; CQWLQDCFRG[4-FPhe]C as printed; 3 Cys on TATA) [Example 118]	250 nM
ACRDLDPWTCEEWWLCAHP (linker 2-10-16 via TATA) [Example 170]	170 nM
ACKDLDPWTCSSWWECAPN (linker 2-10-16 via TATA; not fully specified (C-terminus)) [Example 167]	170 nM
CQWLEDCWXGFC (not fully specified; N-term acetyl; CQWLEDCW[Cit]GFC as printed; 3 Cys on TATA) [Example 104]	180 nM
CQWLEDCWRGXC (N-term acetyl; CQWLEDCWRG[2ThienylA]C as printed; 3 Cys on TATA) [Example 135]	490 nM
ACVDLDPWSCEDWWLCA (linker 2-10-16 via TATA) [Example 183]	330 nM
CQWLEDCWXGFC (N-term acetyl; CQWLEDCW[Can]GFC as printed; 3 Cys on TATA) [Example 131]	400 nM

Binder	Kd
ACDWQWSYDCWLPCA (linker 2-10-14 via TATA) [Example 196]	6100 nM
ACNWLEDCWHGFCHEE (linker 2-8-13 via TATA; not fully specified (C-terminus)) [Example 125]	300 nM
RAPCPDLDPWTCSDWWLCA (linker 4-12-18 via TATA) [Example 187]	86 nM
ACEWLEDCWRGFCA (linker 2-8-13 via TATA; not fully specified (C-terminus)) [Example 101]	160 nM
B5	9.2 nM
RDLCTDLDPWTCPDWWLCA (linker 4-12-18 via TATA) [Example 189]	310 nM
ACDWDWEYDCWLHCA (linker 2-10-14 via TATA) [Example 198]	290 nM
Ac-CQWLEDCWAGFC (linker 1-7-12 via TATA) [Example 149]	1100 nM
C[Orn]ELDPWTCETWWLC (linker 1-9-15 via TATA) [Example 180]	300 nM
ACTELDPWTCETWWLCA (linker 2-10-16 via TATA; not fully specified (C-terminus)) [Example 163]	230 nM
CTELDXWTCETWWLC (CTELD[diF-P]WTCETWWLC as printed; 3 Cys on TATA) [Example 182]	1300 nM
CQWLQDCWXGXC (N-term acetyl; CQWLQDCW[ADMA]G[4-FPhe]C as printed; 3 Cys on TATA) [Example 20]	8.6 nM
CQWLEDCWXGXC (N-term acetyl; CQWLEDCW[4-PipA]G[4-FPhe]C as printed; 3 Cys on TATA) [Example 70]	80 nM
B6	12 nM
RVNTHQCRDLDPWTCSSWWLCA (linker 7-15-21 via TATA) [Example 190]	81 nM
ACRDLDPWTCSSWWLCKPDHVDA (linker 2-10-16 via TATA) [Example 177]	580 nM
CQWXEDCWRGFC (N-term acetyl; CQW[M(O)]EDCWRGFC as printed; 3 Cys on TATA) [Example 147]	940 nM
ACRDLDPWTCSSWWLCSESVHTA (linker 2-10-16 via TATA) [Example 175]	240 nM
CQWLEDCWXGFC (not fully specified; CQWLEDCW[Dap]GFC as printed; 3 Cys on TATA) [Example 156]	3300 nM
ACFWLEDCWRGYCETA (linker 2-8-13 via TATA) [Example 138]	520 nM

— patent US20220363718A1 (Bicycle, published 2022)
